Laboratory results reported in patent publication US20250161505A1 (RIPTIDE BIOSCIENCE, published 2025).

What was measured:
DOTA-MART-1 = target: T1, DOTA-MART-1 (conjugated with the chelator DOTA (no radiometal stated); attachment site not stated); assay: SPR (Biacore T200), CD206 immobilized on CM5 chip, peptide as analyte
T1 construct: also called MART-1 peptide with DOTA

[68Ga]MART-1 = target: T2, [68Ga]MART-1 (conjugated with the chelator DOTA complexed with 68Ga; attachment site not stated); assay: protein plate binding assay on coated mouse CD206, gamma counting
T2 construct: Synthetic control peptide with DOTA, radiolabeled with 68Ga under the same conditions as RP832c; also called 68Ga-labeled DOTA-MART-1; control tracer

B1: Recombinant human CD206 (receptor)
chain: LLDTRQFLIYNEDHKRCVDAVSPSAVQTAACNQDAESQKFRWVSESQIMSVAFKLCLGVPSKTDWVAITLYACDSKSEFQKWECKNDTLLGIKGEDLFFNYGNRQEKNIMLYKGSGLWSRWKIYGTTDNLCSRGYEAMYTLLGNANGATCAFPFKFENKWYADCTSAGRSDGWLWCGTTTDYDTDKLFGYCPLKFEGSESLWNKDPLTSVSYQINSKSALTWHQARKSCQQQNAELLSITEIHEQTYLTGLTSSLTSGLWIGLNSLSFNSGWQWSDRSPFRYLNWLPGSPSAEPGKSCVSLNPGKNAKWENLECVQKLGYICKKGNTTLNSFVIPSESDVPTHCPSQWWPYAGHCYKIHRDEKKIQRDALTTCRKEGGDLTSIHTIEELDFIISQLGYEPNDELWIGLNDIKIQMYFEWSDGTPVTFTKWLRGEPSHENNRQEDCVVMKGKDGYWADRGCEWPLGYICKMKSRSQGPEIVEVEKGCRKGWKKHHFYCYMIGHTLSTFAEANQTCNNENAYLTTIEDRYEQAFLTSFVGLRPEKYFWTGLSDIQTKGTFQWTIEEEVRFTHWNSDMPGRKPGCVAMRTGIAGGLWDVLKCDEKAKFVCKHWAEGVTHPPKPTTTPEPKCPEDWGASSRTSLCFKLYAKGKHEKKTWFESRDFCRALGGDLASINNKEEQQTIWRLITASGSYHKLFWLGLTYGSPSEGFTWSDGSPVSYENWAYGEPNNYQNVEYCGELKGDPTMSWNDINCEHLNNWICQIQKGQTPKPEPTPAPQDNPPVTEDGWVIYKDYQYYFSKEKETMDNARAFCKRNFGDLVSIQSESEKKFLWKYVNRNDAQSAYFIGLLISLDKKFAWMDGSKVDYVSWATGEPNFANEDENCVTMYSNSGFWNDINCGYPNAFICQRHNSSINATTVMPTMPSVPSGCKEGWNFYSNKCFKIFGFMEEERKNWQEARKACIGFGGNLVSIQNEKEQAFLTYHMKDSTFSAWTGLNDVNSEHTFLWTDGRGVHYTNWGKGYPGGRRSSLSYEDADCVVIIGGASNEAGKWMDDTCDSKRGYICQTRSDPSLTNPPATIQTDGFVKYGKSSYSLMRQKFQWHEAETYCKLHNSLIASILDPYSNAFAWLQMETSNERVWIALNSNLTDNQYTWTDKWRVRYTNWAADEPKLKSACVYLDLDGYWKTAHCNESFYFLCKRSDEIPATEPPQLPGRCPESDHTAWIPFHGHCYYIESSYTRNWGQASLECLRMGSSLVSIESAAESSFLSYRVEPLKSKTNFWIGLFRNVEGTWLWINNSPVSFVNWNTGDPSGERNDCVALHASSGFWSNIHCSSYKGYICKRPKIIDAKPTHELLTTKADTRKMDPSK
notes: Bought protein, amine-coupled to a CM5 chip (about 5000 RU)
- binding result (DOTA-MART-1): no binding (tested: 0.5 uM-10 uM)

B2: CD206 mouse protein (receptor)
chain: LDARQFLIYNEDHKRCVDALSAISVQTATCNPEAESQKFRWVSDSQIMSVAFKLCLGVPSKTDWASVTLYACDSKSEYQKWECKNDTLFGIKGTELYFNYGNRQEKNIKLYKGSGLWSRWKVYGTTDDLCSRGYEAMYSLLGNANGAVCAFPFKFENKWYADCTSAGRSDGWLWCGTTTDYDKDKLFGFCPLHFEGSERLWNKDPLTGILYQINSKSALTWHQARASCKQQNADLLSVTEIHEQMYLTGLTSSLSSGLWIGLNSLSVRSGWQWAGGSPFRYLNWLPGSPSSEPGKSCVSLNPGKNAKWENLECVQKLGYICKKGNNTLNPFIIPSASDVPTGCPNQWWPYAGHCYRIHREEKKIQKYALQACRKEGGDLASIHSIEEFDFIFSQLGYEPNDELWIGLNDIKIQMYFEWSDGTPVTFTKWLPGEPSHENNRQEDCVVMKGKDGYWADRACEQPLGYICKMVSQSHAVVPEGADKGCRKGWKRHGFYCYLIGSTLSTFTDANHTCTNEKAYLTTVEDRYEQAFLTSLVGLRPEKYFWTGLSDVQNKGTFRWTVDEQVQFTHWNADMPGRKAGCVAMKTGVAGGLWDVLSCEEKAKFVCKHWAEGVTRPPEPTTTPEPKCPENWGTTSKTSMCFKLYAKGKHEKKTWFESRDFCKAIGGELASIKSKDEQQVIWRLITSSGSYHELFWLGLTYGSPSEGFTWSDGSPVSYENWAYGEPNNYQNVEYCGELKGDPGMSWNDINCEHLNNWICQIQKGKTLLPEPTPAPQDNPPVTADGWVIYKDYQYYFSKEKETMDNARAFCKKNFGDLATIKSESEKKFLWKYINKNGGQSPYFIGMLISMDKKFIWMDGSKVDFVAWATGEPNFANDDENCVTMYTNSGFWNDINCGYPNNFICQRHNSSINATAMPTTPTTPGGCKEGWHLYKNKCFKIFGFANEEKKSWQDARQACKGLKGNLVSIENAQEQAFVTYHMRDSTFNAWTGLNDINAEHMFLWTAGQGVHYTNWGKGYPGGRRSSLSYEDADCVVVIGGNSREAGTWMDDTCDSKQGYICQTQTDPSLPVSPTTTPKDGFVTYGKSSYSLMKLKLPWHEAETYCKDHTSLLASILDPYSNAFAWMKMHPFNVPIWIALNSNLTNNEYTWTDRWRVRYTNWGADEPKLKSACVYMDVDGYWRTSYCNESFYFLCKKSDEIPATEPPQLPGKCPESEQTAWIPFYGHCYYFESSFTRSWGQASLECLRMGASLVSIETAAESSFLSYRVEPLKSKTNFWIGMFRNVEGKWLWLNDNPVSFVNWKTGDPSGERNDCVVLASSSGLWNNIHCSSYKGFICKMPKIIDPVTTHSSITTKADQRKMDPQPKGSSKA
notes: Bought protein coated on a 96 well plate (1 ug per well); also called mouse CD206 protein; murine CD206
- binding result ([68Ga]MART-1): no binding (tested: 50 nM)
